The subject of this experiment is PPIs identified as affected by the SH3 domain deletions. In words: Liquid DHFR-PCA low-throughput validation of PPIs affected by SH3 deletion (Fig. S1D-E). It counts as cell-based, Saccharomyces cerevisiae. Particulars: label = prey, liquid DHFR-PCA, prey _1 = lost, _2 = gained in screen. A digest of the protocol:
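Growth at 30 °C was tracked by OD each 15 min over 72 h in agar-free PCA selection medium, starting at 0.1 OD. Cells were diploids selected after mating, first cultured 48 h with NAT and HPH in synthetic complete MSG medium, pH 6.0.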

The text below walks through data of PMC7954794, “Protein context shapes the specificity of SH3 domain-mediated interactions in vivo” (Nature Communications, 2021).

B1: YKL051W_2 (protein, UniProt P35735 1-353, looked up)
Protein SFK1: MIQFKSPGNWLFIVPWIAFIPWYGMLIAMLICWASQGHPIYWFMHSEQFPVYISDIGATNLRPLFISCAGWQGLGYVITVALEFFQRSGYLPFQLKKKDPSISDSTSYAEKLHSGKYLMPPYYTKDERNLIFAAFVLGSIGELALLFSSIFSTALYHRVHIAMVSVFVVFMFLSTCCLIAEYFLMGRHYASVHPLASPHFNPQSSEKSFNQDYNTVDELPWYKWKGHVWNKFTISATLKVIWLTLAVVWAICFGAINDRSKSACFEWLLAFWFGIIFMILSADFYLGGRYRQSRYFNHVESFSGYYKYDKALGLYHSEDVLPSDDNAGVIATETASSNIYNNSSSNESIQVVV
As for B1, the “Ratio (Deletedscore / WTscore)” value is, setting by setting: (bait BOI1) 0.8707; (bait BZZ1-2) 1.125; (bait LSB3) 1.525.

B2: YCR002C_2 (protein, UniProt P25342 1-322, looked up)
Cell division control protein …: MDPLSSVQPASYVGFDTITNQIEHRLLKKGFQFNIMVVGQSGLGKSTLINTLFASHLIDSATGDDISALPVTKTTEMKISTHTLVEDRVRLNINVIDTPGFGDFIDNSKAWEPIVKYIKEQHSQYLRKELTAQRERFITDTRVHAILYFLQPNGKELSRLDVEALKRLTEIANVIPVIGKSDTLTLDERTEFRELIQNEFEKYNFKIYPYDSEELTDEELELNRSVRSIIPFAVVGSENEIEINGETFRGRKTRWSAINVEDINQCDFVYLREFLIRTHLQDLIETTSYIHYEGFRARQLIALKENANSRSSAHMSSNAIQR
For the molecule B2, the “Ratio (Deletedscore / WTscore)” value was 1.169 (bait BZZ1-2), 0.2463 (bait HOF1) and 1.096 (bait LSB3).

B3: YCR030C_2 (protein, UniProt P25623 1-870, looked up)
Suppressor of yeast profilin …: MTEQRTKYADSILTTKSPYEATETIRIRLSQVKLLNKDFYLLFKELANLKRNYAQQLRKIIAENEDITKILNAQMIESNVLTPQEMSAFRFNSLGELRNVWDTVIEELKSDLKSSTEYYNTLDQQVVRELKESVENNTSWRESKDLHSKLSKNAASIEHYSKNNENSSHLEEARRQWDQQSPYLFELFETIDYNRLDTLKNCMLRFQTSFSDYLLNTTKECETVMTKFLAFEPQSEIDRFAKDASQYNFQLSSSSKEVVPNNASPASATGARPVSVSNGAANTEREKKSPQKDKRKSAFGNIGHRLASASSSLTHNDLMNNEFSDSTNNSSLKSKKSSHTLRSKVGSIFGRNKTKNKRQQQSSSNSHIQASITETPNNSSTRVSSTATSSIYQKQRRPTYSSSKSNNWTPGEASDTPPLPPHATPKNVDAPVTADTPPAQTFTPSEVPPSTPQQSSPPTAKEPDSSNLPKTVPISISQPPLQPQSKTKPLPVEPASPSISLPTATVDNQPSGQVDSRPLHIRAPALPPSRKQNFIHNRDSQLYDSLPNHGSGATPTSSSLSSIPQERPVSTLSSQITGELRELNPQATGSSTSLVGQSLFQHSSLDTSQFGLNASIAEVLNASFKDGMLQNSQLIGEIALNYLPNSVMNSPLPIGINLRINNGAKFEKVILNQAFIERVAPEEFKVNPSFIDSRTLGAIKYSIKEPIAPIVIHPVWRFESHQASVVLTVKMSPSLPDEISQIVIEDLVVFVNIDGANATSALSKPQGSFSKEKKRITWRFKEPVVLTRNGEGQRLIARFITDGLAHESAKGVITKFTISETDNVALPHSGAGSGITLTCQELDENNPFGGEWLDVNTKRTLTTGNYHGLA
With B3, the “Ratio (Deletedscore / WTscore)” value (bait BZZ1-2) is reported as 1.115.

B4: YBL039C_2 (protein, UniProt P28274 1-579, looked up)
CTP synthase 1: MKYVVVSGGVISGIGKGVLASSTGMLMKTLGLKVTSIKIDPYMNIDAGTMSPLEHGECFVLDDGGETDLDLGNYERYLGVTLTKDHNITTGKIYSHVIAKERKGDYLGKTVQIVPHLTNAIQDWIERVAKIPVDDTGMEPDVCIIELGGTVGDIESAPFVEALRQFQFKVGKENFALIHVSLVPVIHGEQKTKPTQAAIKGLRSLGLVPDMIACRCSETLDKPTIDKIAMFCHVGPEQVVNVHDVNSTYHVPLLLLEQKMIDYLHARLKLDEISLTEEEKQRGLELLSKWKATTGNFDESMETVKIALVGKYTNLKDSYLSVIKALEHSSMKCRRKLDIKWVEATDLEPEAQESNKTKFHEAWNMVSTADGILIPGGFGVRGTEGMVLAARWARENHIPFLGVCLGLQIATIEFTRSVLGRKDSHSAEFYPDIDEKNHVVVFMPEIDKETMGGSMRLGLRPTFFQNETEWSQIKKLYGDVSEVHERHRHRYEINPKMVDELENNGLIFVGKDDTGKRCEILELKNHPYYIATQYHPEYTSKVLDPSKPFLGLVAASAGILQDVIEGKYDLEAGENKFNF
For the molecule B4, the “Ratio (Deletedscore / WTscore)” value is given as 1.633 (bait BZZ1-2), 1.248 (bait HSE1) and 1.147 (bait LSB3).

B5: YAR042W_2 (protein, UniProt P35845 1-1188, looked up)
Oxysterol-binding protein …: MEQPDLSSVAISKPLLKLKLLDALRQGSFPNLQDLLKKQFQPLDDPNVQQVLHLMLHYAVQVAPMAVIKEIVHHWVSTTNTTFLNIHLDLNERDSNGNTPLHIAAYQSRGDIVAFLLDQPTINDCVLNNSHLQAIEMCKNLNIAQMMQVKRSTYVAETAQEFRTAFNNRDFGHLESILSSPRNAELLDINGMDPETGDTVLHEFVKKRDVIMCRWLLEHGADPFKRDRKGKLPIELVRKVNENDTATNTKIAIDIELKKLLERATREQSVIDVTNNNLHEAPTYKGYLKKWTNFAQGYKLRWFILSSDGKLSYYIDQADTKNACRGSLNMSSCSLHLDSSEKLKFEIIGGNNGVIRWHLKGNHPIETNRWVWAIQGAIRYAKDREILLHNGPYSPSLALSHGLSSKVSNKENLHATSKRLTKSPHLSKSTLTQNDHDNDDDSTNNNNNKSNNDYDDNNNNNNNDDDDYDDDDESRPLIEPLPLISSRSQSLSEITPGPHSRKSTVSSTRAADIPSDDEGYSEDDSDDDGNSSYTMENGGENDGDEDLNAIYGPYIQKLHMLQRSISIELASLNELLQDKQQHDEYWNTVNTSIETVSEFFDKLNRLTSQREKRMIAQMTKQRDVNNVWIQSVKDLEMELVDKDEKLVALDKERKNLKKMLQKKLNNQPQVETEANEESDDANSMIKGSQESTNTLEEIVKFIEATKESDEDSDADEFFDAEEAASDKKANDSEDLTTNKETPANAKPQEEAPEDESLIVISSPQVEKKNQLLKEGSFVGYEDPVRTKLALDEDNRPKIGLWSVLKSMVGQDLTKLTLPVSFNEPTSLLQRVSEDIEYSHILDQAATFEDSSLRMLYVAAFTASMYASTTNRVSKPFNPLLGETFEYARTDGQYRFFTEQVSHHPPISATWTESPKWDFYGECNVDSSFNGRTFAVQHLGLWYITIRPDHNISVPEETYSWKKPNNTVIGILMGKPQVDNSGDVKVTNHTTGDYCMLHYKAHGWTSAGAYEVRGEVFNKDDKKLWVLGGHWNDSIYGKKVTARGGELTLDRIKTANSATGGPKLDGSKFLIWKANERPSVPFNLTSFALTLNALPPHLIPYLAPTDSRLRPDQRAMENGEYDKAAAEKHRVEVKQRAAKKEREQKGEEYRPKWFVQEEHPVTKSLYWKFNGEYWNKRKNHDFKDCADIF
B5: for the setting “bait ABP1”, the “Ratio (Deletedscore / WTscore)” value was determined as 1.203.

B6: YKR048C_2 (protein, UniProt P25293 1-417, looked up)
Nucleosome assembly protein: MSDPIRTKPKSSMQIDNAPTPHNTPASVLNPSYLKNGNPVRAQAQEQDDKIGTINEEDILANQPLLLQSIQDRLGSLVGQDSGYVGGLPKNVKEKLLSLKTLQSELFEVEKEFQVEMFELENKFLQKYKPIWEQRSRIISGQEQPKPEQIAKGQEIVESLNETELLVDEEEKAQNDSEEEQVKGIPSFWLTALENLPIVCDTITDRDAEVLEYLQDIGLEYLTDGRPGFKLLFRFDSSANPFFTNDILCKTYFYQKELGYSGDFIYDHAEGCEISWKDNAHNVTVDLEMRKQRNKTTKQVRTIEKITPIESFFNFFDPPKIQNEDQDEELEEDLEERLALDYSIGEQLKDKLIPRAVDWFTGAALEFEFEEDEEEADEDEDEEEDDDHGLEDDDGESAEEQDDFAGRPEQAPECKQS
With B6, the “Ratio (Deletedscore / WTscore)” value came out at 1.065 (bait BOI2) and 1.174 (bait LSB3).
